Assay results from patent publication US20260098102A1 (NATIONAL UNIVERSITY CORPORATION KOBE UNIVERSITY, published 2026).

How the values were obtained:
[1] = biological target: T1, human SIRPG (human, UniProt Q9P1W8 29-387); experiment: flow cytometry on CHO-K1 cells expressing FLAG-tagged human SIRPG; PE anti-human IgG; MFI standardized to secondary antibody alone
T1 construct: whole, on cells; FLAG-tagged (pFLAG V5-DEST), on CHO-K1 cells; also called SIRPγ; signal regulatory protein γ
Experimental: SIRPβ1 (signal regulatory protein β1: the amino acid sequence thereof is published as RefSeq accession number NP_006056) and SIRPγ (signal regulatory protein γ: the amino acid sequence thereof is published as RefSeq accession number NP_061026) are molecules belonging to the SIRPA family. In the present invention, “SIRPα” may be referred to as “SIRPA,” “SIRPβ1” may be referred to as […] and “SIRPγ” may be referred to as “SIRPG.” CHO-K1 cells were prepared in a 10% FBS-containing Ham's F-12K medium at 3.3×10⁵ cells/mL and cultured overnight at 37° C. under a 5% CO₂ condition. pFLAG V5-DEST-human SIRPβ, pFLAG V5-DEST-human SIRPG, or pFLAG V5-DEST was introduced into the cells using Lipofectamine LTX (Invitrogen), and cells were cultured in a 10% FBS-containing Ham's F-12K medium at 37° C. under a 5% CO₂ condition for 24 hours. The obtained introduced cells were collected and seeded on a 96-well plate. After the culture supernatant was removed, 100 μL per well of various anti-human SIRPA antibodies or various control human IgG was added to each of various gene introduced cells at a final concentration of 0 to 10,000 ng/mL, and the mixture was allowed to stand at 4° C. for 25 minutes. After the mixture was centrifuged, the supernatant was removed, and cells were washed twice with 5% FBS-containing PBS. […]
After the mixture was centrifuged, and the supernatant was removed, cells were suspended in 100 μL per well of 1× BD Stabilizing Fixative (Becton Dickinson), and the cell count was measured by flow cytometry (FACS Canto II: Becton Dickinson). […] Cells were characterized by detecting forward scattered (FSC) light and side-scattered (SSC) light, and then the mean fluorescence intensity of PE was calculated. Binding of various antibodies to the family molecules was calculated by standardizing the fluorescence intensity using the mean fluorescence intensity of a sample in which the secondary antibody alone was allowed to react.

[2] = biological target: T2, SIRPA_V1_IgV (human, UniProt P78324 31-149); experiment: SPR Biacore T200, antibody captured on anti-human IgG (Fc), SIRPA_V1_IgV as analyte (0.25 to 16 nM), 1:1 model
T2 construct: Secreted recombinant protein from FreeStyle 293F cells
T2 sequence (P78324 other isoform, or with tags, fused parts or gaps limits assumed): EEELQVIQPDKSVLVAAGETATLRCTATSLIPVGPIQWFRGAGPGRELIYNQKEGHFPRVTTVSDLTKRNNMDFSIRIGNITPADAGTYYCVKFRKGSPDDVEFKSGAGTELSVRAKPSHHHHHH
Experimental: The dissociation constants were measured by a capture method comprising capturing each antibody as a ligand to an Anti-Human IgG (Fc) antibody immobilized using Human Antibody Capture Kit (GE Healthcare Bioscience Corp.) and measuring an antigen as an analyte, using Biacore T200 (GE Healthcare Bioscience Corp.). HBS-EP+ (GE Healthcare Bioscience Corp.) was used as a running buffer, and CM5 (GE Healthcare Bioscience Corp.) was used as a sensor chip. Onto the chip, 2 μg/mL of various antibodies were added at 10 μL/min for 30 seconds, then a serially diluted solution (0.25 to 16 nM) of the human SIRPA protein as an antigen was added at a flow rate of 30 μL/min for 120 seconds, and subsequently the dissociation phase for 600 seconds was monitored. As a regenerant, 3 M magnesium chloride (GE Healthcare Bioscience Corp.) was added at a flow rate of 20 μL/min for 30 seconds. For data analysis, a binding rate constant (ka), a dissociation rate constant (kd), and a dissociation constant (KD; KD=kd/ka) were calculated using a 1:1 binding model.

[3] = biological target: T3, human SIRPA_V2 protein (human, UniProt P78324 31-504); experiment: blocking cell-based ELISA: peroxidase-labeled CD47-Fc (10,000 ng/mL) on 293α cells expressing SIRPA_V2; y axis = CD47-Fc signal in % of no antibody [ii]
T3 construct: Expressed on 293α cells from pcDNA3.2 V5-DEST or pFLAG V5-DEST (FLAG-tagged) vectors; also called human SIRPA Variant 2; ECD variant (full-length, amino acids 1 to 504)

[4] = biological target: T2, SIRPA_V1_IgV; experiment: SPR Biacore T200, antibody captured, SIRPA_V1_IgV as analyte, 1:1 model
Experimental: The dissociation constants of the cD13, cF44, and cF63 prepared in Example 4 against the human SIRPA_V1_IgV prepared in Example 1 were determined by a capture method comprising capturing a human chimeric antibody as a ligand and measuring an antigen as an analyte, using Biacore T200 (GE Healthcare Bioscience Corp.). HBS-EP+ (GE Healthcare Bioscience Corp.) was used as a running buffer, and CM5 (GE Healthcare Bioscience Corp.) was used as a sensor chip. In an amount of 1 μg/mL human chimeric antibody was added onto a chip at a rate of 10 μL/min for 60 seconds, a serially diluted solution of human SIRPA protein as an antigen (0.5 to 8 μg/mL) was added at a flow rate of 30 μL/min for 120 seconds, and the dissociation phase continued to be monitored for 600 seconds. As a regenerant, 3 M magnesium chloride (GE Healthcare Bioscience Corp.) was added at a flow rate of 20 μL/min for 30 seconds. For data analysis, the binding rate constant (ka), dissociation rate constant (kd), and dissociation constant (KD; KD=kd/ka) were calculated using a 1:1 binding model.

T1 sequence (Q9P1W8 29-387): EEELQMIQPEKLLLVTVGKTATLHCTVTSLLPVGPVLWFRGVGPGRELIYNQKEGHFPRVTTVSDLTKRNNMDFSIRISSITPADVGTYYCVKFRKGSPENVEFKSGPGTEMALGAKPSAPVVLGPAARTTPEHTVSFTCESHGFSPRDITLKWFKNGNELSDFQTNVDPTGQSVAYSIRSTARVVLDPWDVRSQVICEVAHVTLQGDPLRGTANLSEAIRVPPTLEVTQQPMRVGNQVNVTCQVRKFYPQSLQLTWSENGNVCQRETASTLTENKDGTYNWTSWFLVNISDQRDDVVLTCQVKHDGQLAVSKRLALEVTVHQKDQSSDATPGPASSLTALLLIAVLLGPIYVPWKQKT

EC50 (read off the curve) [1] [µg/mL]	Kd [2] [nM]	IC50 (read off the curve) [3] [µg/mL]	Kd [4] [nM]	Binder
~0.03	0.252	–	–	humanized anti-SIRPA antibody hD13_H1L3 (antibody, human IgG4 S228P, kappa, F234A L235A, V domains shown, hH1 heavy chain (IgG4proFALA) and hL3 kappa light chain; also called hD13_HIL3; HIL3 antibody) VH: QVQLVESGGGVVQPGRSLRLSCAASGFTFSDYGMIWVRQAPGKGLEWVASISSSSSYIYYADSVKGRFTISRDNSKNRLYLQMNSLRAEDTAVYYCARRYYGFNYPFDYWGQGTMVTVSS VL: DTQLTQSPSSLSASVGQRVTITCGASKSVRTYMHWYQQKPGKQPKLLIYSASNLEAGVPSRFSGSGSGTDFTLTISSLQPEDFATYYCQQSNEPPYTFGQGTKLEIKR
–	–	~0.3	0.0811	human chimeric anti-SIRPA antibody cD13 (antibody, human IgG4 S228P, kappa, F234A L235A, V domains shown, Human IgG4proFALA heavy chain, human kappa light chain; also called cD13 (IgG4pf); human chimeric antibody D13) VH: EVQLVESGGGLVQPGRSLKLSCLASGFTFSDYGMIWVRQAPGKGLEWVASISSSSSYIYYADTVKGRFTISRENAKNTLFLHMTSLRSEDTALYYCARRYYGFNYPFDYWGQGVMVTVSS VL: DTVLTQSPALAVSLGQRVTISCGASKSVRTYMHWYQQKSGQQPKLLIYSASNLEAGVPSRFSGSGSGTDFTLTIDPVEADDIANYYCQQSNEPPYTFGAGTKLELKR
